What was measured:
Settings in all cases: both partners purified
[1] = target: T1, Mcm7 (S. cerevisiae, UniProt P38132 1-845); test: cryo-EM structure; pre-insertion OCCM, 8.1 Å; same loading reaction (purified ORC, Cdc6, Cdt1, mutant Mcm2-7, ARS1 DNA, ATPγS); models docked as rigid bodies
T1 construct: Mcm7 of S. cerevisiae; Stood in the assay as a subunit of the mutant Mcm2-7; in the semi-attached OCCM only its WHD is resolved
T1 sequence (looked up): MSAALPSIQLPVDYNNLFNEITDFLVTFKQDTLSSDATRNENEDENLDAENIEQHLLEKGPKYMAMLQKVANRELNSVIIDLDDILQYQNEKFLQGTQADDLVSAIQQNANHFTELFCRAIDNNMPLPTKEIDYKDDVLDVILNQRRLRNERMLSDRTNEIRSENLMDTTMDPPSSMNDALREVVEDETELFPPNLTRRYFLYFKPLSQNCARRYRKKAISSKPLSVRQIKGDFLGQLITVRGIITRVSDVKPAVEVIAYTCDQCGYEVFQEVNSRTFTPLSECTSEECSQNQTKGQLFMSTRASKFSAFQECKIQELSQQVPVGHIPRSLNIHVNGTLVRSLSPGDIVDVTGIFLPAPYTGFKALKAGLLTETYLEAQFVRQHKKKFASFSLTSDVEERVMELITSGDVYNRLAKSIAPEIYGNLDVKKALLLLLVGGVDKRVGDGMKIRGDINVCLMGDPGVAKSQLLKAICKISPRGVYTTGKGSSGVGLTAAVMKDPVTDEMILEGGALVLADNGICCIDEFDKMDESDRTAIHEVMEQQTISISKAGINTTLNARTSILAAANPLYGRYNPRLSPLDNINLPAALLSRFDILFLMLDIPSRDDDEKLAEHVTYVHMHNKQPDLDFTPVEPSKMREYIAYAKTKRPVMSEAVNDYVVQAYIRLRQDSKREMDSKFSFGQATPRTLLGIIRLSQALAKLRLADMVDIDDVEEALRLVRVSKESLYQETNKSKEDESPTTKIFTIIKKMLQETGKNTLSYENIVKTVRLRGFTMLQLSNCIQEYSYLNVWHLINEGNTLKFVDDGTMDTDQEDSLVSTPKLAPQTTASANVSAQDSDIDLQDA

[2] = target: T2, Mcm3 (S. cerevisiae, UniProt P24279 1-971); test: as above
T2 construct: Mcm3 of S. cerevisiae; Stood in the assay as a subunit of the mutant Mcm2-7; in the semi-attached OCCM only its WHD is resolved

[3] = target: T3, origin recognition complex (Orc1-6; ORC) (S. cerevisiae, UniProt P54784 1-914; P32833 1-620; P54790 1-616; P54791 1-529; P50874 1-479; P38826 …); test: cryo-EM structure; semi-attached OCCM, 4.3 Å; assembled from purified ORC, Cdc6, Cdt1 and mutant Mcm2-7 on pUC19-ARS1 DNA beads with 3 mM ATPγS, 15 min at 24 °C, eluted with DNase I
T3 construct: Orc1, subunit of the S. cerevisiae origin recognition complex; Orc2, subunit of the S. cerevisiae origin recognition complex; Orc3, subunit of the S. cerevisiae origin recognition complex; Orc4, subunit of the S. cerevisiae origin recognition complex; Orc5, subunit of the S. cerevisiae origin recognition complex; Orc6, subunit of the S. cerevisiae origin recognition complex; copies: + + + + +

[4] = target: T4, Orc1 (S. cerevisiae, UniProt P54784 1-914); test: as above
T4 construct: Orc1, subunit of the S. cerevisiae origin recognition complex; Stood in the assay as a subunit of ORC
T4 sequence: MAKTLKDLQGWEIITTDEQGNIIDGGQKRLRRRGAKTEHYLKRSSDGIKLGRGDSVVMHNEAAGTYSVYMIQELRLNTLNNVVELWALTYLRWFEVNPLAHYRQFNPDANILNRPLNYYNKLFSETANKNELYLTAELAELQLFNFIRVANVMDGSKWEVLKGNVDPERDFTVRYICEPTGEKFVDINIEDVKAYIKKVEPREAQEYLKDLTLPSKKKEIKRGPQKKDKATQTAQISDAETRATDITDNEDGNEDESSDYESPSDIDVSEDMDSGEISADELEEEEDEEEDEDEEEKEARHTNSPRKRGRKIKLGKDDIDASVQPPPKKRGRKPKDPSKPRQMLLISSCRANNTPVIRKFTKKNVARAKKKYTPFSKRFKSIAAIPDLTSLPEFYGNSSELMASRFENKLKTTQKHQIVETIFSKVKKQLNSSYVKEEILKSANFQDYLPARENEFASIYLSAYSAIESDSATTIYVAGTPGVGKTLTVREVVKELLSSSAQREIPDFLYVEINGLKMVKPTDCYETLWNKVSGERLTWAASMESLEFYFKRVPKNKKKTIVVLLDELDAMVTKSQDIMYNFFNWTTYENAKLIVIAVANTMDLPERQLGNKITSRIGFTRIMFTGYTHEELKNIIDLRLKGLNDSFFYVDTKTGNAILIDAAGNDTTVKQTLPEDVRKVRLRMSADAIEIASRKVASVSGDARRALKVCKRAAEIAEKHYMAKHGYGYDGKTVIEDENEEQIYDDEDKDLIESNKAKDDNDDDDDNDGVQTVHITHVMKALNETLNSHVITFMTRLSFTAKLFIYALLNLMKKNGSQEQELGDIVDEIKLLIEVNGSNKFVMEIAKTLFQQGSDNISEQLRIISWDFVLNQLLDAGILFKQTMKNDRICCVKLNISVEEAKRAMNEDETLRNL

Measured: binding result

T2 sequence (P24279 whole entry): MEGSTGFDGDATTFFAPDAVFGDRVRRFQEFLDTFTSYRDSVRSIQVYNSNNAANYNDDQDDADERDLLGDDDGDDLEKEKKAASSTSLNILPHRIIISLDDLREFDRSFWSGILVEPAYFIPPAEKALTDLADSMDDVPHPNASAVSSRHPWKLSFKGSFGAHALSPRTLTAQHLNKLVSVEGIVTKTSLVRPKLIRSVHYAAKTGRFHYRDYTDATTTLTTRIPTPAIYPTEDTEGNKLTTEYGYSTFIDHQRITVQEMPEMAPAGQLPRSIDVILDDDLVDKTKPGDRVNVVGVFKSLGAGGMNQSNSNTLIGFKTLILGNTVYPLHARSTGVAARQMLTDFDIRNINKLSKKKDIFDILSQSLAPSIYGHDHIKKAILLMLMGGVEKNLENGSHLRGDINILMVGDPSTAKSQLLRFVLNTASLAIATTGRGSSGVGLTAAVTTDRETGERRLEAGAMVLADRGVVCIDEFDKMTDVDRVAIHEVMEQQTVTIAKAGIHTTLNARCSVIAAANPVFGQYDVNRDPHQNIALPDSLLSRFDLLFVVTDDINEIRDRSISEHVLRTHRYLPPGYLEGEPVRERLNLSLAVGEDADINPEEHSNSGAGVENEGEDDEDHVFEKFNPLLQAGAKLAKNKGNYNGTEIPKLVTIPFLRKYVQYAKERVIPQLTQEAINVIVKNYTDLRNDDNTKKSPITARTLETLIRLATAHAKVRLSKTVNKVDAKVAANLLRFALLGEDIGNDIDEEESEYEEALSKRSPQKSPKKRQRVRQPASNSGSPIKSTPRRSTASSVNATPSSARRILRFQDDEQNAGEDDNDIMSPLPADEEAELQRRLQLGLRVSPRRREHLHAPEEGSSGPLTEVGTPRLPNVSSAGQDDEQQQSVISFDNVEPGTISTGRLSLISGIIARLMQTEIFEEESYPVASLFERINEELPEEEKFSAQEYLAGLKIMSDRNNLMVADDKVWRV

B1: Cdc6 (natural protein, S. cerevisiae)
chain: MSAIPITPTKRIRRNLFDDAPATPPRPLKRKKLQFTDVTPESSPEKLQFGSQSIFLRTKALLQKSSELVNLNSSDGALPARTAEYEQVMNFLAKAISEHRSDSLYITGPPGTGKTAQLDMIIRQKFQSLPLSLSTPRSKDVLRHTNPNLQNLSWFELPDGRLESVAVTSINCISLGEPSSIFQKIFDSFQDLNGPTLQIKNMQHLQKFLEPYHKKTTFVVVLDEMDRLLHANTSETQSVRTILELFLLAKLPTVSFVLIGMANSLDMKDRFLSRLNLDRGLLPQTIVFQPYTAEQMYEIVIQKMSSLPTIIFQPMAIKFAAKKCAGNTGDLRKLFDVLRGSIEIYELEKRFLLSPTRGSLNSAQVPLTPTTSPVKKSYPEPQGKIGLNYIAKVFSKFVNNNSTRTRIAKLNIQQKLILCTIIQSLKLNSDATIDESFDHYIKAITKTDTLAPLQRNEFLEICTILETCGLVSIKKTKCKGKTKRFVDKIDVDLDMREFYDEMTKISILKPFLH
notes: Cdc6 of S. cerevisiae
binds: all assays above

From publication PMC7395460, “Structural mechanism of helicase loading onto replication origin DNA by ORC-Cdc6” (Proceedings of the National Academy of Sciences of the …, 2020)
